How the values were obtained:
c-Src SH2 = test: SH2 binding enrichment of the phosphorylated peptide, bacterial display (enrichment ratio); higher = better substrate or ligand; peptides without Tyr show the background
SHP2-C SH2 = test: as above
Grb2 SH2 = Grb2 SH2 (UniProt P62993); test: as above
FGFR3 = FGFR3 (UniProt P22607); test: phosphorylation enrichment, bacterial display (enrichment ratio); higher = better substrate or ligand; peptides without Tyr show the background
c-Abl (mouse) = test: as above
Jak2 = Jak2 (UniProt O60674); test: as above
Fyn = Fyn (UniProt P06241); test: as above
Fyn, sequence (P06241 whole entry, looked up): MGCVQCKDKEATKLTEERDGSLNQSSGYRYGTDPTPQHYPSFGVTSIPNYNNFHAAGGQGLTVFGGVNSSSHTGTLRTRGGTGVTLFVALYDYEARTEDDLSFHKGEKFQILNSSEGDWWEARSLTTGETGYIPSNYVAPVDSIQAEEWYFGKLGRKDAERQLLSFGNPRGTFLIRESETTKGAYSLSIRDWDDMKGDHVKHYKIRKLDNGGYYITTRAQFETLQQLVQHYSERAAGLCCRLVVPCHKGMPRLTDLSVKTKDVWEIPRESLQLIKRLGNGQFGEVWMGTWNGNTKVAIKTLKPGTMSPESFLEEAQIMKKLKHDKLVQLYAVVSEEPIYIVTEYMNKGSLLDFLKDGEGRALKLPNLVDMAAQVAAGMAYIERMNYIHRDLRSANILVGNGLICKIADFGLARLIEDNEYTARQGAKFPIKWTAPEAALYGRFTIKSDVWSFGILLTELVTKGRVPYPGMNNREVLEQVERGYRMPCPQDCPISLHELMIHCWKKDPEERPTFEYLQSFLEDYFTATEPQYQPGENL

EPHB2 = EPHB2 (UniProt P29323); test: as above
EPHB2, sequence (P29323 whole entry, looked up): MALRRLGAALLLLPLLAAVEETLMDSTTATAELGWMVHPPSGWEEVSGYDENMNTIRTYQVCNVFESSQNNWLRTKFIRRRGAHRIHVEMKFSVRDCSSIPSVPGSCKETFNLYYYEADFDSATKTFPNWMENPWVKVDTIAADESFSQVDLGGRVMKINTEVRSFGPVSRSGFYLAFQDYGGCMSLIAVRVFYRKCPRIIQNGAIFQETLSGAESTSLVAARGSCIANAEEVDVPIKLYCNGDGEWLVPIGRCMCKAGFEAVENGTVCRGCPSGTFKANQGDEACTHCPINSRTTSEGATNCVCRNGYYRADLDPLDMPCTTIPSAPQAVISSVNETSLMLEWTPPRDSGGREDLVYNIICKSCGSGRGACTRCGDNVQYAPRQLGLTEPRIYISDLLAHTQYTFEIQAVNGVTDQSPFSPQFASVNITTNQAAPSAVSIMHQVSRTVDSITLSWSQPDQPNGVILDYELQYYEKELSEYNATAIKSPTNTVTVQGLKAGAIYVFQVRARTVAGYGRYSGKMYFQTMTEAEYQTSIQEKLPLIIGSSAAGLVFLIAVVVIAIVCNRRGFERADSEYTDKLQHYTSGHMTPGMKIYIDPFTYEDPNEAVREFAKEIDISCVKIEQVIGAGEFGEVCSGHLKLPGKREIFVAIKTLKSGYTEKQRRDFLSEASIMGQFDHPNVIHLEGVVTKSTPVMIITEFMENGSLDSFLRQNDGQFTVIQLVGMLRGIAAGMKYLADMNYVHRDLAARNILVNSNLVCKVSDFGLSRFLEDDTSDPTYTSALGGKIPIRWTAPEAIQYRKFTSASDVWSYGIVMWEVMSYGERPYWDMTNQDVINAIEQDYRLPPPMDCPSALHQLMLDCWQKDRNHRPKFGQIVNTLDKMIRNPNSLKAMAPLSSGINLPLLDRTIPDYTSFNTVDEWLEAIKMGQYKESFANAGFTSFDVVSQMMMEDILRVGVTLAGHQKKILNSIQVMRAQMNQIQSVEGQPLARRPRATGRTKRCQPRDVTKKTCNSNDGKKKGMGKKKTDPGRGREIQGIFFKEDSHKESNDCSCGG

AncSZ = test: as above
Fes = Fes (UniProt P07332); test: as above
Fes, sequence (P07332 whole entry, looked up): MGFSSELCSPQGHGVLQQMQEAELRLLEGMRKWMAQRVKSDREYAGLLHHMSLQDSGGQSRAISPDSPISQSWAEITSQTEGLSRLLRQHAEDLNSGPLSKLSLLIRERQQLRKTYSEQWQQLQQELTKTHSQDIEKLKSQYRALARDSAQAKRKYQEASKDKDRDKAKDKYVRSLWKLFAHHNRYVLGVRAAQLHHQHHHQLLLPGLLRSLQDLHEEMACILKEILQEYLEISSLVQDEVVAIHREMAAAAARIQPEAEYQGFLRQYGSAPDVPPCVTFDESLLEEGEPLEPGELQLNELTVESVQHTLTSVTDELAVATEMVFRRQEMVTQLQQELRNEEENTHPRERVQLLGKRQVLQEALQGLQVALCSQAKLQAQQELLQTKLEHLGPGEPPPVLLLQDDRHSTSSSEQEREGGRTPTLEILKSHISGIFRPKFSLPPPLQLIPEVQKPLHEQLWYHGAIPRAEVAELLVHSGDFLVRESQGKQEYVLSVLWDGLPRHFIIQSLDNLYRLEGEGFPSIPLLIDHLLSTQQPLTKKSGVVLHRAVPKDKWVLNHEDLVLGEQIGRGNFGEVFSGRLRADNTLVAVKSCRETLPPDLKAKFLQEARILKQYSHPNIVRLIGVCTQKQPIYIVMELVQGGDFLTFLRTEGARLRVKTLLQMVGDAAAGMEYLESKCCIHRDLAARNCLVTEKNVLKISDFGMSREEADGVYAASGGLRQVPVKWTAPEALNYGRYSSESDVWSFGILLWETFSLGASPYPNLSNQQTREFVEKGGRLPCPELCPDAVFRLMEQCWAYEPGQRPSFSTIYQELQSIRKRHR

Hck = Hck (UniProt P08631); test: as above
Hck, sequence (P08631 whole entry, looked up): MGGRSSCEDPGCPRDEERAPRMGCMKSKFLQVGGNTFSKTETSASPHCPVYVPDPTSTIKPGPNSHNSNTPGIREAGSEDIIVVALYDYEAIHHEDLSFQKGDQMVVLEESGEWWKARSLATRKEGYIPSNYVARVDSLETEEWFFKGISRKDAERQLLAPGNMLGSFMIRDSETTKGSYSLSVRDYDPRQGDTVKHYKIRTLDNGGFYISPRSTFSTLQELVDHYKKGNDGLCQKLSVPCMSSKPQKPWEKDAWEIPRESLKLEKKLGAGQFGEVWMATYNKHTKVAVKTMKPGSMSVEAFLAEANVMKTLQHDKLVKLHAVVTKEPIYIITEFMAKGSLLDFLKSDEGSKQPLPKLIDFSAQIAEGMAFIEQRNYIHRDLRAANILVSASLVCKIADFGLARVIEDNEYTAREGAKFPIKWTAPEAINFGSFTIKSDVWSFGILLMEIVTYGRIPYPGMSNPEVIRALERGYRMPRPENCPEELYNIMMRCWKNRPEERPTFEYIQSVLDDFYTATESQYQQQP

EPHB1 = EPHB1 (UniProt P54762); test: as above
FGFR1 = FGFR1 (UniProt P11362); test: as above
FGFR1, sequence (P11362 whole entry, looked up): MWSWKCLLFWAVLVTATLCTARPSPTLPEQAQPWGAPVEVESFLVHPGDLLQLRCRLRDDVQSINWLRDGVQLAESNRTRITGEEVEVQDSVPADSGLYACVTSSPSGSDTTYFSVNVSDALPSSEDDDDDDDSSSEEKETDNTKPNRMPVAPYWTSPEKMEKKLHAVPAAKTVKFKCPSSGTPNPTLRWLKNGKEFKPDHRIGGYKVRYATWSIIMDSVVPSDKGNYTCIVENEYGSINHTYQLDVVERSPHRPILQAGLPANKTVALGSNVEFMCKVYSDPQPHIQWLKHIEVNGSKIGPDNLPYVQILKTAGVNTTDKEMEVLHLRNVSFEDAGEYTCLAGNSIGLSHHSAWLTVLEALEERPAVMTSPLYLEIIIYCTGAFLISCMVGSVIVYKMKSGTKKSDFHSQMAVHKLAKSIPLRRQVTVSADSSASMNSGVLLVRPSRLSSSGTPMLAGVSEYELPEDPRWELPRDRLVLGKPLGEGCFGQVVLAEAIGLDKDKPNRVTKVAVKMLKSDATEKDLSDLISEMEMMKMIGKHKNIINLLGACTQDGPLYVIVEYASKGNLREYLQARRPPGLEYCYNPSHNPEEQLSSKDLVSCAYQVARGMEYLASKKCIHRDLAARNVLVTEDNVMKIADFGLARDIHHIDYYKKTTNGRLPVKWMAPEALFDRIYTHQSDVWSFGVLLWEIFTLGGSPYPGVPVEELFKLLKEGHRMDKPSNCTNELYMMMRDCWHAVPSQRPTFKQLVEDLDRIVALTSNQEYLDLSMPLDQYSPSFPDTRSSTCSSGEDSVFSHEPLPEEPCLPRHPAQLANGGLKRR

MERTK = MERTK (UniProt Q12866); test: as above
MERTK, sequence (Q12866 whole entry, looked up): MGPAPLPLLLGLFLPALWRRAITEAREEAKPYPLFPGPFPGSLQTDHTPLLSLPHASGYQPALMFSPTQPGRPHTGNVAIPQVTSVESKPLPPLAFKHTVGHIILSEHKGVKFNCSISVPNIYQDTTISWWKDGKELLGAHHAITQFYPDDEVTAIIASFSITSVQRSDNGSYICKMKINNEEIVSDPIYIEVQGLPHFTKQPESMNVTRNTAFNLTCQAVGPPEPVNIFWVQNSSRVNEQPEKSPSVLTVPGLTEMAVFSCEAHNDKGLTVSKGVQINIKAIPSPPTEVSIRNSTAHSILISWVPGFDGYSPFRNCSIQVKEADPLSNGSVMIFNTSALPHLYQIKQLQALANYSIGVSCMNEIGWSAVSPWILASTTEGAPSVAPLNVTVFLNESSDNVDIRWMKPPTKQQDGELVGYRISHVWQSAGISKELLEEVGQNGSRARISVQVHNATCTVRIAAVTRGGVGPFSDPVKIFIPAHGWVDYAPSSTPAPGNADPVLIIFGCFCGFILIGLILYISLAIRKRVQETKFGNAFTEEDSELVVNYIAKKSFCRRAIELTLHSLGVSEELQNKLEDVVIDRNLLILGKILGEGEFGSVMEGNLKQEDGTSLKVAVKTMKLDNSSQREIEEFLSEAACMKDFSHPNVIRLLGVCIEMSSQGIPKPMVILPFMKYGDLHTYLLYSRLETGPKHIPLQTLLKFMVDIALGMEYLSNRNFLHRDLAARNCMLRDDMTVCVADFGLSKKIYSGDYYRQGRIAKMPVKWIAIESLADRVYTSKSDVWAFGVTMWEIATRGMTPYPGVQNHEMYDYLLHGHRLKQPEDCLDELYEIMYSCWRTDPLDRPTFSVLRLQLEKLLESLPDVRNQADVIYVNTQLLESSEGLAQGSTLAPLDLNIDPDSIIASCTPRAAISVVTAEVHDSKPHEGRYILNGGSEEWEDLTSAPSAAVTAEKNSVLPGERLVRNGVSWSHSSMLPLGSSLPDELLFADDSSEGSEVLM

Fer (mouse) = test: as above
c-Src = test: as above
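Throughout, for SH2 binding enrichment of the phosphorylated peptide, bacterial display: peptide library displayed on the E. coli surface as eCPX fusions, selected cells deep-sequenced, score is each peptide's frequency after selection divided by its frequency in the input.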
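Throughout, for phosphorylation enrichment, bacterial display: 11-residue human phosphosite peptides and single-mutation variants displayed on the E. coli surface, counted by deep sequencing, each peptide's frequency after selection divided by its frequency in the unselected input library; frequency after pTyr selection over input frequency; kinase dosed for 20-30% of maximal phosphorylation in three min.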

Grb2 SH2, sequence (P62993 whole entry, looked up): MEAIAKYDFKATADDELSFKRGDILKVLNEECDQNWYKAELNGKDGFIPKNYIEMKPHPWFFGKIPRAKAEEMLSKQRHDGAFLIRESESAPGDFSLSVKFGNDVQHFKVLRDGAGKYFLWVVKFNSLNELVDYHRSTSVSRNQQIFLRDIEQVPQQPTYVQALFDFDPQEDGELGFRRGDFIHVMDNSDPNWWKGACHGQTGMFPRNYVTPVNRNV

Row | Sequence | SH2 binding enrichment (c-Src SH2) | SH2 binding enrichment (SHP2-C SH2) | SH2 binding enrichment (Grb2 SH2) | phosphorylation enrichment (FGFR3) | phosphorylation enrichment (c-Abl (mouse)) | phosphorylation enrichment (Jak2) | phosphorylation enrichment (Fyn) | phosphorylation enrichment (EPHB2) | phosphorylation enrichment (AncSZ) | phosphorylation enrichment (Fes) | phosphorylation enrichment (Hck) | phosphorylation enrichment (EPHB1) | phosphorylation enrichment (FGFR1) | phosphorylation enrichment (MERTK) | phosphorylation enrichment (Fer (mouse)) | phosphorylation enrichment (c-Src)
1 | SAASSYSFSDL [EMD_Y59] | 0.544 | 0.598 | 0.846 | 0.666 | 0.753 | 0.874 | 0.477 | 0.47 | 0.839 | 0.951 | 0.468 | 0.508 | 0.434 | 0.498 | 0.478 | 0.455
2 | SCPANYFAFKI [FAM3D_Y65_P60S] | 0.823 | 0.996 | 1.12 | 5.33 | 3.31 | 5.24 | 0.901 | 2.09 | 1.16 | 1.08 | 1.05 | 3.97 | 7.58 | 7.13 | 0.785 | 2.62
3 | SCTFTYLLGDR [ETHE1_Y38] | 0.588 | 0.729 | 0.83 | 0.575 | 0.604 | 0.921 | 0.491 | 0.56 | 1.11 | 1.2 | 0.404 | 0.491 | 0.446 | 0.409 | 0.426 | 0.515
4 | SDGHEYIYVDP [PDGFRB_Y579] | 0.557 | 0.662 | 0.779 | 5.43 | 1.6 | 1.62 | 1.07 | 1.72 | 3.82 | 0.988 | 1.2 | 2.17 | 8.64 | 0.92 | 1.66 | 2
5 | SDVCMYRKNIY [SYNE2_Y570] | 0.418 | 0.51 | 0.645 | 0.681 | 0.685 | 0.875 | 0.416 | 0.541 | 1.12 | 1.08 | 0.51 | 0.618 | 0.502 | 0.419 | 0.491 | 0.424
6 | SDVDLYQVRTA [PSMD9_Y70] | 0.444 | 0.599 | 0.705 | 0.505 | 0.735 | 0.645 | 1.41 | 0.538 | 0.792 | 0.738 | 4.25 | 0.555 | 0.419 | 0.411 | 0.648 | 1.89
7 | SENYTYIWWLN [PSG4_Y271_K267E] | 0.399 | 0.636 | 0.694 | 1.82 | 0.829 | 1.27 | 0.403 | 1.24 | 1.27 | 1.33 | 0.485 | 1.53 | 1.67 | 0.605 | 0.694 | 0.362
8 | SESSFYKSLNL [NGEF_Y289_A286S_YF] | 0.48 | 0.495 | 0.775 | 0.816 | 0.853 | 1.06 | 0.479 | 0.516 | 1.06 | 1.25 | 0.521 | 0.598 | 0.477 | 0.468 | 0.562 | 0.508
9 | SFGENYDNSKS [MAN1B1_Y60] | 0.75 | 0.571 | 0.765 | 0.548 | 0.833 | 0.89 | 0.438 | 0.461 | 0.766 | 0.958 | 0.408 | 0.434 | 0.452 | 0.567 | 0.444 | 0.464
10 | SFHCSYSEIKD [DCLRE1C_Y322_S320C] | 3.86 | 2.29 | 0.704 | 0.811 | 0.873 | 0.9 | 0.585 | 0.59 | 1.06 | 1.21 | 0.568 | 0.599 | 0.558 | 0.497 | 0.639 | 0.647
11 | SFVMVYEGNAR [INSR_Y1038_G1035V] | 0.531 | 0.942 | 0.973 | 0.85 | 0.618 | 1.22 | 0.634 | 0.683 | 1.28 | 1.25 | 0.747 | 0.621 | 0.562 | 0.393 | 0.551 | 0.77
12 | SGGGLYRDMGA [CBX8_Y321] | 0.542 | 0.589 | 0.842 | 0.522 | 0.502 | 0.557 | 0.48 | 0.624 | 0.564 | 0.618 | 0.428 | 0.53 | 0.524 | 0.42 | 0.373 | 0.373
13 | SGGGSYGSGGG [KRT1_Y539] | 0.444 | 0.608 | 0.526 | 0.372 | 0.512 | 0.599 | 0.412 | 0.282 | 0.626 | 0.491 | 0.346 | 0.312 | 0.351 | 0.349 | 0.356 | 0.271
14 | SHLEDYPFNAE [AKR1B10_Y310] | 0.404 | 0.573 | 0.928 | 0.771 | 0.713 | 1.03 | 0.517 | 0.511 | 1.01 | 1.14 | 0.504 | 0.568 | 0.489 | 0.413 | 0.594 | 0.396
15 | SHMVDYQPYRK [TEX37_Y25] | 0.445 | 0.365 | 0.735 | 0.505 | 0.91 | 0.719 | 0.59 | 0.402 | 0.759 | 0.83 | 0.701 | 0.609 | 0.47 | 0.575 | 0.575 | 0.673
16 | SHNELYYEEAE [VANGL1_Y344] | 0.799 | 0.931 | 1.05 | 1.15 | 0.896 | 1.37 | 0.544 | 0.733 | 1.5 | 1.27 | 0.626 | 0.736 | 1.05 | 0.58 | 1.03 | 0.578
17 | SIIKDYFHRGT [GATM_Y203_A208T] | 0.469 | 0.631 | 0.685 | 0.542 | 0.514 | 0.551 | 0.433 | 0.604 | 0.656 | 0.62 | 0.463 | 0.42 | 0.476 | 0.365 | 0.465 | 0.569

Row | Sequence | SH2 binding enrichment (c-Src SH2) | SH2 binding enrichment (SHP2-C SH2) | SH2 binding enrichment (Grb2 SH2) | phosphorylation enrichment (FGFR3) | phosphorylation enrichment (c-Abl (mouse)) | phosphorylation enrichment (Jak2) | phosphorylation enrichment (Fyn) | phosphorylation enrichment (EPHB2) | phosphorylation enrichment (AncSZ) | phosphorylation enrichment (Fes) | phosphorylation enrichment (Hck) | phosphorylation enrichment (EPHB1) | phosphorylation enrichment (FGFR1) | phosphorylation enrichment (MERTK) | phosphorylation enrichment (Fer (mouse)) | phosphorylation enrichment (c-Src)
18 | SILTVYSKDNY [PANK2_Y400_A398T] | 0.676 | 0.679 | 0.856 | 0.594 | 0.639 | 0.715 | 0.442 | 0.407 | 0.678 | 0.91 | 0.449 | 0.535 | 0.452 | 0.383 | 0.388 | 0.538
19 | SKEPFYVRCIK [MYO1D_Y586_YF] | 0.413 | 0.79 | 0.8 | 0.634 | 0.727 | 0.921 | 0.339 | 0.56 | 0.939 | 1.18 | 0.434 | 0.951 | 0.42 | 0.347 | 0.449 | 0.354
20 | SLALFYRNVYH [RBL1_Y792_K794N] | 0.446 | 0.566 | 0.743 | 0.741 | 0.576 | 0.869 | 0.419 | 0.433 | 0.923 | 1.25 | 0.524 | 0.511 | 0.603 | 0.382 | 0.45 | 0.381
21 | SLDLSYFHTSS [EMD_Y181_P183H_YF] | 0.599 | 0.591 | 0.907 | 0.595 | 0.645 | 1.06 | 0.464 | 0.6 | 0.799 | 0.881 | 0.559 | 0.517 | 0.549 | 0.566 | 0.441 | 0.466
22 | SLKAFYGEDAK [ALDH3A1_Y272_E270A] | 0.68 | 0.663 | 0.891 | 0.538 | 0.562 | 0.58 | 0.416 | 0.369 | 0.603 | 0.724 | 0.456 | 0.395 | 0.433 | 0.332 | 0.417 | 0.489
23 | SLLLSYYLIKW [NUP160_Y773_P768S] | 0.925 | 1.01 | 1.27 | 2.09 | 0.882 | 2.23 | 0.456 | 0.539 | 1.12 | 1.24 | 0.499 | 0.673 | 2.51 | 0.649 | 0.47 | 0.587
24 | SLNEGYARDFD [FBP1_Y216] | 0.562 | 0.765 | 1.06 | 0.617 | 0.767 | 0.908 | 0.639 | 0.573 | 1.06 | 0.94 | 0.547 | 0.505 | 0.461 | 0.485 | 0.554 | 0.44
25 | SLTRLCVGENA [NLRP3_Y861_Y861C] | 0.538 | 0.589 | 0.867 | 0.685 | 2.77 | 0.759 | 0.503 | 0.541 | 0.809 | 1 | 0.534 | 0.495 | 0.471 | 0.466 | 0.434 | 0.445
26 | SMGMKYLEEKN [ZAP70_Y451] | 0.638 | 0.86 | 0.962 | 0.506 | 0.644 | 0.727 | 0.7 | 0.463 | 0.717 | 0.879 | 0.398 | 0.518 | 0.493 | 0.383 | 0.454 | 0.434
27 | SNKLYYQLEQE [PDPR_Y110] | 2.13 | 0.725 | 1.17 | 4.95 | 1.11 | 1.27 | 1.52 | 0.761 | 1.37 | 1.19 | 0.922 | 0.903 | 5.94 | 3.9 | 0.601 | 2.36
28 | SNVEQYQAMVT [TPR_Y965] | 0.688 | 0.411 | 0.754 | 0.541 | 0.487 | 0.846 | 0.506 | 0.444 | 0.754 | 0.692 | 0.424 | 0.443 | 0.416 | 0.355 | 0.457 | 0.384
29 | SNYRAYATEPH [TNNI3_Y29] | 0.378 | 0.551 | 0.869 | 0.447 | 0.503 | 0.435 | 0.404 | 0.452 | 0.49 | 0.475 | 0.382 | 0.372 | 0.422 | 0.397 | 0.379 | 0.362
30 | SPFEVYVDKSQ [FLNA_Y373] | 0.685 | 0.697 | 1.02 | 0.726 | 0.581 | 0.99 | 0.477 | 0.515 | 1.08 | 1.27 | 0.499 | 0.669 | 0.493 | 0.388 | 0.499 | 0.481
31 | SPPILYSFYLD [FCRL6_Y239] | 0.882 | 1.14 | 1.28 | 0.924 | 0.736 | 0.775 | 2.03 | 4.22 | 1.31 | 1.05 | 1.57 | 3.28 | 1.42 | 8.22 | 1.37 | 2.74
32 | SPQAHYRLSAF [ADAMTS9_Y100_S96P] | 0.481 | 0.688 | 0.971 | 0.427 | 0.597 | 0.584 | 0.425 | 0.552 | 0.532 | 0.659 | 0.37 | 0.531 | 0.4 | 0.521 | 0.436 | 0.503
33 | SPRDTYSDRIG [CTPS1_Y567_S571I] | 0.438 | 0.617 | 0.844 | 0.494 | 0.411 | 0.374 | 0.453 | 0.5 | 0.445 | 0.605 | 0.471 | 0.516 | 0.379 | 0.416 | 0.358 | 0.406

From the supplement of paper PMC10065799, “High-throughput profiling of sequence recognition by tyrosine kinases and SH2 domains using bacterial peptide display” (eLife, 2023)
